The values that follow come from US7001748B2, “Methods of making polyketides using hybrid polyketide synthases” (The Board of Trustees of the Leland Stanford Junior …, priority 1999, dated 2006).

The assay addresses T1, (5)M2+TE (Saccharopolyspora erythraea, UniProt Q03131+Q03133).
T1 construct: a single module of the DEBS PKS fused to the thioesterase (TE) termination region of module 6; made in house; host or cells: E. coli BL21(DE3); ACP4(4) from pNW8 (pET28a), phosphopantetheinylated in vitro with Sfp
Kind of assay: Labeling of holo-ACP4(4) with 14C-2a mediated by (5)M2+TE (back-transfer). It counts as biochemical. The conditions noted are these: presence and absence of (5)M2+TE. On the procedure:
Labeling of Holo-ACP4(4) with ^14C-2a Mediated by (5)M2+TE. Holo-ACP4(4) (20 μM) was incubated with 1 mM [1-^14C]-labeled 2a (custom synthesized by Amersham Pharmacia, specific activity 55 mCi/mmol) and 1 μM (5)M2+TE in reaction buffer C for 10 min at 30° C. The protein was precipitated with 75% acetone/H2O for 5 min at −80° C. After washing the pellet with 6.25% (w/v) TCA to remove excess salts followed by 500 μL of 75% acetone/H2O to remove residual, unbound 14 C-2a, the precipitated protein was resuspended in 8 μL of buffer A and 4 μL of SDS sample buffer, and resolved on a 4-20% SDS-PAGE gradient gel (Bio-Rad). The proteins were visualized with Coomassie blue stain and dried, and the radioactivity was detected either on a Packard InstantImager or by exposing the gel to X-ray film.

B1: holo-ACP4(4): DEBS ACP4 catalytic domain with its natural C-terminal linker, phosphopantetheinylated (protein)
chain: HHHHHHNVVDRLAGRSESDQVAGLAELVRSHAAAVSGYGSADQLPERKAFKDLGFDSLAAVELRNRLGTATGVRLPSTLVFDHPTPLAVAEHLRDRLFAASPAVDIGDRLDELEKALEALSAEDGHDDVGQRLESLLRRWNSRRADAPSTSAISEDASDDELFSMLDQRFGGGEDL
modifications: non-natural residues
notes: DEBS ACP4 catalytic domain with its natural C-terminal linker, phosphopantetheinylated
As to B1, the “radiolabeling of ACP by 14C-2a” value is recorded as “radiolabeled only in the reaction containing (5)-M2+TE”.
